The target of one assay is T1, K248A.
T1 construct: also called HuHtrA1_PD(K248A)
Kind of assay: ELISA on plate-coated HuHtrA1_PD mutants (Example 7); column head on the sheet reads YW505.94 Fab, legend paragraph 70 says IgG94. How it is done: (§1) The mutants were expressed in E. coli and the trimers purified by size exclusion chromatography as described in Example 2. Binding was determined using an ELISA assay, which was conducted using a MAXISORP™ microtiter plate coated with HuHtrA1_PD mutants at 2 μg/ml in PBS for 1 h, followed by blocking with PBST buffer (0.5% BSA and 0.05% Tween 20 in PBS) for 1 h at room temperature. […] The plates were washed with PBT buffer (0.05% Tween 20 in PBS), and HRP-conjugated goat anti-human IgG (H+L) (Invitrogen) was added (1:5000 in PBST buffer) and incubated for 1 h. The plates were washed with PBT buffer and developed by adding tetramethylbenzidine substrate (Kirkegaard and Perry Laboratories, Gaithersburg, Md.). The absorbance at 450 nm was plotted as a function of antibody concentration in solution to determine EC₅₀ values.
(§2) In trypsin-like serine proteases these loops are known to be part of the specificity determining region that interacts with substrates.
On the technique in general: In an ELISA, binding on a coated surface is turned into a signal by an enzyme label.

In assay [1] the target is T2, HuHtrA1_PD(S328A), catalytically inactive protease domain of human HtrA1 (human, UniProt F1N152 168-386 (bovine entry)).
T2 construct: Trimer; not shown: thrombin cleavage site
T2 chain: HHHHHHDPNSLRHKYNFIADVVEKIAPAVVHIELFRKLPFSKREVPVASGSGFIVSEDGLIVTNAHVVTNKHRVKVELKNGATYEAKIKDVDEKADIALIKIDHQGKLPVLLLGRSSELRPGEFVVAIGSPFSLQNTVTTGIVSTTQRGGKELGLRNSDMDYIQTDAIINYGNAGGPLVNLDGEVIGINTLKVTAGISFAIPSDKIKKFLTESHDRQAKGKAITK
Described as above. As for the experimental part: as §1, §2

For the next assay, the target named is T3, Y325A.
T3 construct: also called HuHtrA1_PD(Y325A)
The assay is described as above. As for the experimental part:
as §1, §2

The target in the next assay is T4, D250A.
T4 construct: also called HuHtrA1_PD(D250A)
The description is as above. As for the experimental part: as §1, §2

The target of another assay is T5, D244A.
T5 construct: also called HuHtrA1_PD(D244A)
The assay is described as above. How it is done:
as §1, §2

The target in a further assay is T6, HuHtrA1_PD(K243A) (human, UniProt F1N152 168-386 (bovine entry)).
T6 construct: Alanine mutant of HuHtrA1_PD; also called HuHtrA1 mutant K243A; not shown: thrombin cleavage site
T6 chain: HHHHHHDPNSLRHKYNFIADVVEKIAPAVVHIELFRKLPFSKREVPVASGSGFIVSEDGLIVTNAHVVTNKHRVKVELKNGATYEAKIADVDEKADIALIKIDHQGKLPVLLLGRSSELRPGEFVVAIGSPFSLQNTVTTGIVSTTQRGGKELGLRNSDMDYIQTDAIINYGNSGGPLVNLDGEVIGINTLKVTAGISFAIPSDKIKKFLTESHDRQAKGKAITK
The assay is described as above. As for the experimental part:
as §1, §2

For another assay, the target named is T7, R227A.
T7 construct: also called HuHtrA1_PD(R227A)
Described as above. How it is done: as §1, §2

For assay [2], the target named is T8, Protease domain of human HtrA1 (HuHtrA1_PD), residues D161-K379 (human, UniProt F1N152 168-386 (bovine entry)).
T8 construct: Expressed in E. coli; not shown: thrombin cleavage site between tag and D161
Kind of assay: ELISA on plate-coated wild-type HuHtrA1_PD, row WT (Example 7); column head on the sheet reads YW505.94 Fab, legend paragraph 70 says IgG94. How it is done:
as §1

For assay [3], the target named is T9, Full length murine HtrA1 (MuHtrA1) (P24-P480), N-terminal His6 tag (murine, UniProt Q9R118 24-480).
T9 construct: Expressed in insect cells
Kind of assay: SPR (BIAcore T100), single-cycle kinetics, biotinylated murine HtrA1 captured on streptavidin, Fab in solution. From the text:
To determine the binding affinity of HtrA1 antibodies by single cycle kinetics, Surface Plasmon Resonance (SRP) measurement with a BIAcore™ T100 instrument was used. Briefly, a series S sensor chip CM5 was activated with EDC and NHS reagents according to the supplier's instructions, and streptavidin (Pierce) was coupled to achieve approximately 2000 response units (RU), followed by blocking un-reacted groups with 1M ethanolamine.
For kinetics measurements, biotinylated human or murine HtrA1 was first injected at 10 ul/min flow rate to capture approximately 100 RU at 3 different flow cells (FC), except for FC1 (reference), and then 5-fold serial dilutions of anti-HtrA1 Fab in HBS-P buffer (0.01M HEPES pH 7.4, 0.15M NaCl, 0.005% surfactant P20) from low (0.48 nM) to high (300 nM) [5 points] were injected (flow rate: 30 μl/min) one after the other in the same cycle with no regeneration between injections. The sensorgram was recorded and subject to reference and buffer subtraction before evaluation by BIAcore™ T100 Evaluation Software (version 2.0). Association rates (km) and dissociation rates (koff) were calculated using a simple one-to-one Langmuir binding model. The equilibrium dissociation constant (Kd) was calculated as the ratio koff/kₒₙ.
For orientation: In SPR one partner is held on a chip, and binding of the other changes the refractive index at the surface.

Usually EC50 stands for the midpoint of the concentration-response curve. The low end stands for a more potent agent, the high end for a less potent agent. The term Kd denotes the constant that tells how readily two partners part at equilibrium. A high value points to a looser complex. Usually koff stands for the rate constant with which the complex falls apart. Broadly, the kon is the rate constant with which the complex forms.

T9 sequence (Q9R118 other isoform, or with tags, fused parts or gaps): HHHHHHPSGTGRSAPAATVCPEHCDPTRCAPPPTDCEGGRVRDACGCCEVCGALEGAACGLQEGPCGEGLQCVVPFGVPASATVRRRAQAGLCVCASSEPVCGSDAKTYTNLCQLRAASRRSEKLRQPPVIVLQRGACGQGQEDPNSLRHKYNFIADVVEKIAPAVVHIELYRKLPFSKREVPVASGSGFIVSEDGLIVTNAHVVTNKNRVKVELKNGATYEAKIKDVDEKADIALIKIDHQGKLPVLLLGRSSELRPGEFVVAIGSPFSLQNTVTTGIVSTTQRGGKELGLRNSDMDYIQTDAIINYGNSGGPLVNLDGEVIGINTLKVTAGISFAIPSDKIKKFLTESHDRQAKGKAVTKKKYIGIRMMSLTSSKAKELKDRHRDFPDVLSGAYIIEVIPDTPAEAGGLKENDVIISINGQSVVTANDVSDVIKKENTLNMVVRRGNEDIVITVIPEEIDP
T8 sequence (F1N152 other isoform, or with tags, fused parts or gaps): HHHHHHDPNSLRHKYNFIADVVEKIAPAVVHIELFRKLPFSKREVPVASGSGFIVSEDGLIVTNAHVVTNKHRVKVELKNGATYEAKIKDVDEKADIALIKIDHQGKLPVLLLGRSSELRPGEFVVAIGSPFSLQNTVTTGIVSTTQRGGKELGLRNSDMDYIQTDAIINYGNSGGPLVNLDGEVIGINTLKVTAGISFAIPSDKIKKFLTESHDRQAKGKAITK

B1: Fab94 (anti-HtrA1 antibody YW505.94, Fab format) (Fab, V domains shown)
VH: EVQLVESGGGLVQPGGSLRLSCAASGFNISGYYIHWVRQAPGKGLEWVGWIDPYGGDTNYADSVKGRFTISADTSKNTAYLQMNSLRAEDTAVYYCARGTFLTSWGHYFDYWGQGT
VL: DIQMTQSPSSLSASVGDRVTITCRASQDVSTAVAWYQQKPGKAPKLLIYSASFLYSGVPSRFSGSGSGTDFTLTISSLQPEDFATYYCQQSYTTPPTFGQGTKVEIKR
Take B1: the EC50 came out at 196 nM with K248A; 2.3 nM in assay [1]; 7.7 nM with Y325A; 9.4 nM with D250A; 4.7 nM with D244A; 64.9 nM with HuHtrA1_PD(K243A). Moreover, the EC50 with R227A stood at 25.9 nM; in assay [2], 5.6 nM. In addition, the “Relative to WT EC50 Fold Decrease” value with K248A was determined as 35 fold; in assay [1], 0.4 fold; with Y325A, 1.4 fold; in the assay with D250A it was 1.7 fold; with D244A, 0.8 fold; with HuHtrA1_PD(K243A) it was 11.6 fold. Further, the “Relative to WT EC50 Fold Decrease” value amounted to 4.6 fold in the assay with R227A and 1 fold in assay [2]. Moreover, the Kd in assay [3] came to 28.9 nM. In addition, the off-rate constant (koff) in [3] is 0.0129 s⁻¹. In assay [3], the kon worked out at 447000 M⁻¹ s⁻¹.

Values taken from patent US20190016826A1 (Genentech, published 2019).
